Experimental data from patent US20260146077A1 (US Dept. of Health and Human Services, published 2026).
Residue numbers refer to the chain shown, from its start.

B1: A23-58.1HC/58.1LC_94GLTG (antibody, V domains shown)
VH: not shown
VL: EIVLTQSPGTLSLSPGERATLSCRASQSVSSSYLAWYQQKPGQAPRLLIYSASSRATGIPDRFSGSGSGTDFTLTISRLEPEDFAVYFCQQYGGLTGWTFGQGTKVEIK
B2: A23-58.1HC/58.1LC_93VGLTG (antibody, V domains shown)
VH: not shown
VL: B1 VL with G93V
B3: S2E12 (antibody, V domains shown)
VH: not shown
VL: B1 VL with E1D, S7T, S51G, F88Y, G93V
B4: A23-58.1HC/58.1LC_94GLT (antibody, V domains shown)
VH: not shown
VL: EIVLTQSPGTLSLSPGERATLSCRASQSVSSSYLAWYQQKPGQAPRLLIYSASSRATGIPDRFSGSGSGTDFTLTISRLEPEDFAVYFCQQYGGLTWTFGQGTKVEIK

Key:
Test in all cases: cell-based or functional assay
[1] = target: BA.4.6
[2] = target: T1, SARS-CoV-2 spike protein, BA.2.12.1 (SARS-CoV-2, UniProt P0DTC2 14-1273)
[3] = target: BA.2.75
[4] = target: SARS-CoV-2 spike protein, B.1.617.2 (SARS-CoV-2, UniProt P0DTC2 14-1273)
[5] = target: SARS-CoV-2 spike protein, B.1.351 (SARS-CoV-2, UniProt P0DTC2 14-1273)
[6] = target: T2, SARS-CoV-2 spike protein, BA.1 (SARS-CoV-2, UniProt P0DTC2 14-1273)
[7] = target: T2, SARS-CoV-2 spike protein, BA.1; remark: listed apart in the source
[8] = target: SARS-CoV-2 spike protein, BA.2 (SARS-CoV-2, UniProt P0DTC2 14-1273)
[9] = target: SARS-CoV-2 spike protein, BA.1.1 (SARS-CoV-2, UniProt P0DTC2 14-1273)
[10] = target: T1, SARS-CoV-2 spike protein, BA.2.12.1; remark: listed apart in the source

Binder	neutralization IC50 [1]	neutralization IC80 [1]	neutralization IC50 [2]	neutralization IC80 [2]	neutralization IC50 [3]	neutralization IC80 [3]	neutralization IC50 [4]	neutralization IC80 [4]	neutralization IC50 [5]	neutralization IC80 [5]	neutralization IC50 [6]	neutralization IC80 [6]	BA.1 neutralization, fold improvement over A19-58.1 [7]	neutralization IC50 [8]	neutralization IC80 [8]	neutralization IC50 [9]	neutralization IC80 [9]	fold loss in neutralization [7]	pseudovirus neutralization IC50 [7]	pseudovirus neutralization IC50 [10]
B1	4.2 ng/mL	15.7 ng/mL	1.9 ng/mL	9.2 ng/mL	1 ng/mL	3.1 ng/mL	2.9 ng/mL	11.2 ng/mL	1.8 ng/mL	4.4 ng/mL	3.6 ng/mL	11.9 ng/mL	> 27 fold	–	–	–	–	–	–	–
B2	4.1 ng/mL	14.8 ng/mL	3.4 ng/mL	11.5 ng/mL	0.9 ng/mL	3 ng/mL	5.8 ng/mL	12.4 ng/mL	2.7 ng/mL	5 ng/mL	3.3 ng/mL	11.2 ng/mL	> 30 fold	–	–	–	–	–	–	–
B3	–	–	15.6 ng/mL	46.6 ng/mL	–	–	1.2 ng/mL	2.6 ng/mL	3.9 ng/mL	8.7 ng/mL	–	38.5 ng/mL	–	9.9 ng/mL	48.2 ng/mL	15.5 ng/mL	55.4 ng/mL	< 10 fold loss	8.8 ng/mL	–
B4	–	–	–	105 ng/mL	–	–	–	–	–	–	–	46.4 ng/mL	7 fold	–	–	–	–	–	13.7 ng/mL	25 ng/mL
